Laboratory results taken from US9835633.

B1: endogenous PCSK2 of NSE-apoE4 mouse neurons/brain (protein)
chain: GYRDINEIDINMNDPLFTKQWYLFNTGQADGTPGLDLNVAEAWELGYTGKGVTIGIMDDGIDYLHPDLAYNYNADASYDFSSNDPYPYPRYTDDWFNSHGTRCAGEVSAAASNNICGVGVAYNSKVAGIRMLDQPFMTDIIEASSISHMPQLIDIYSASWGPTDNGKTVDGPRELTLQAMADGVNKGRGGKGSIYVWASGDGGSYDDCNCDGYASSMWTISINSAINDGRTALYDESCSSTLASTFSNGRKRNPEAGVATTDLYGNCTLRHSGTSAAAPEAAGVFALALEANLDLTWRDMQHLTVLTSKRNQLHDEVHQWRRNGVGLEFNHLFGYGVLDAGAMVKMAKDWKTVPERFHCVGGSVQNPEKIPPTGKLVLTLKTNACEGKENFVRYLEHVQAVITVNATRRGDLNINMTSPMGTKSILLSRRPRDDDSKVGFDKWPFMTTHTWGEDARGTWTLELGFVGSAPQKGLLKEWTLMLHGTQSAPYIDQVVRDYQSKLAMSKKQELEEELDEAVERSLQSILRKN
B2: endogenous PCSK1 of NSE-apoE4 mouse neurons/brain (protein)
chain: SVQKDSALDLFNDPMWNQQWYLQDTRMTAALPKLDLHVIPVWEKGITGKGVVITVLDDGLEWNHTDIYANYDPEASYDFNDNDHDPFPRYDLTNENKHGTRCAGEIAMQANNHKCGVGVAYNSKVGGIRMLDGIVTDAIEASSIGFNPGHVDIYSASWGPNDDGKTVEGPGRLAQKAFEYGVKQGRQGKGSIFVWASGNGGRQGDNCDCDGYTDSIYTISISSASQQGLSPWYAEKCSSTLATSYSSGDYTDQRITSADLHNDCTETHTGTSASAPLAAGIFALALEANPNLTWRDMQHLVVWTSEYDPLASNPGWKKNGAGLMVNSRFGFGLLNAKALVDLADPRTWRNVPEKKECVVKDNNFEPRALKANGEVIVEIPTRACEGQENAIKSLEHVQFEATIEYSRRGDLHVTLTSAVGTSTVLLAERERDTSPNGFKNWDFMSVHTWGENPVGTWTLKITDMSGRMQNEGRIVNWKLILHGTSSQPEHMKQPRVYTSYNTVQNDRRGVEKMVNVVEKRPTQKSLNGNLLVPKNSSSSNVEGRRDEQVQGTPSKAMLRLLQSAFSKNALSKQSPKKSPSAKLSIPYESFYEALEKLNKPSKLEGSEDSLYSDYVDVFYNTKPYKHRDDRLLQALMDILNEEN

Target: human apolipoprotein E4
Sequence (chain, as listed by the source): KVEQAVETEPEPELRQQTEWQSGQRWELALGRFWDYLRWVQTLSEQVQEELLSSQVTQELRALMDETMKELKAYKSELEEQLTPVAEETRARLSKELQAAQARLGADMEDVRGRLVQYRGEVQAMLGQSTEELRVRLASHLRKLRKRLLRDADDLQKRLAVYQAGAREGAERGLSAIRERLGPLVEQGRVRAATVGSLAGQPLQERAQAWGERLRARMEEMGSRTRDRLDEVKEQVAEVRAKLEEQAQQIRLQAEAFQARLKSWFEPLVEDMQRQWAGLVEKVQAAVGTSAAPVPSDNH

| Protein | apoE fragmentation after PCSK2 shRNA in PCSK1 null and PCSK1 WT primary neurons | apoE fragmentation in NSE-apoE4 primary neurons after shRNA knockdown | apoE fragmentation by western blot in brains of PCSK1 null, NSE-apoE4 pups | apoE fragmentation in PCSK1 null primary neurons |
| --- | --- | --- | --- | --- |
| B1 | PCSK2 shRNAs or 7B2 shRNAs decrease apoE fragmentation in PCSK1 null, primary neurons as well as in PCSK1 WT primary neurons | knocking down either PCSK1 or PCSK2 in NSE-apoE4 primary neurons decreased apoE fragmentation |  |  |
| B2 |  | knocking down either PCSK1 or PCSK2 in NSE-apoE4 primary neurons decreased apoE fragmentation | a significant decrease in apoE fragmentation was observed in PCSK1 null, NSE-apoE4 brains compared to that of PCSK1 WT, NSE-apoE4 brains | A decrease of apoE fragmentation was observed in PCSK1 null primary neurons compared to PCSK1 wild-type (WT) neurons |
